“Also recorded” adds a separate entry of the source.
Experiments:
Arabidopsis thaliana = experiment: Herbicide resistance of transgenic Arabidopsis thaliana seedlings on plate medium (root growth); type: in vivo; conditions: Arabidopsis overexpressing the gene
Procedure, shortened: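 After 3 days of cold treatment at 4 °C, seeds were cultured at 22 °C under a 16 h/8 h light cycle on MS herbicide medium (0.3 μM 2,4-D in the screen). Root growth was scored against wild-type seedlings at one week. The material was T2 AAD-overexpressing lines (AtUbi10 promoter, MAS terminator, hygromycin marker), two events each, tested with 2,4-D, 2,4-DB sodium and MCPA.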

[1] = type: cell-based, Escherichia coli
[2] = Chromogenic reaction of degrading herbicides in bacteria: 2,4-D; type: cell-based, Escherichia coli; conditions: recombinant E. coli expressing the gene, 2,4-D added to the medium, red = phenols
Procedure, shortened: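 Colour from 2,4-D degradation was detected at A510 after 5 min at room temperature, with 4-aminoantipyrine and ferricyanide added to culture supernatant in pH 10 borate. Cultures were AAD12-expressing or empty-vector (pET15b) BL21(DE3), grown overnight at 28 °C with 0.5 mM 2,4-D, 0.1 mM IPTG and 2 mM α-ketoglutarate.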

B1: QYD42: AAD-like enzyme, SEQ ID NO. 83; expressed from vectors pQY2309 (Arabidopsis), pQY2329 (maize), pQY2330 (soybean) (protein)
chain: MQITPIADATFGATVTGLRLATLDDAGFARLHAAWLQHALLVFPGQFLTNAEQIGFAKRFGPIERIGGGDIVAISNVKADGTVRQHSPAEWDDMMKVIVGNMAWHADSTYMPVMAQGAVFSAEVVPPTGGRTCFADMRAAYDALDDATRALVHQRSARHSLVYSQSKLGHVQQAGSAYVGYGMDTTATPLRPLVKRHPETGRLSLLIGRHAHAIPGLEEAESERFLEDLVAWACQPPRVVAHHWTAGDVVLWDNRCLLHRAEPWDFTLPRVMWHSRLAGHPETEAAPLV
modifications: Synthetic polypeptide, QYD42, D42
Resistance of transgenic Arabidopsis thaliana: 2,4-D (Arabidopsis thaliana): Yes | Resistance of transgenic Arabidopsis thaliana: MCPA (Arabidopsis thaliana): Yes | Chromogenic reaction of degrading herbicides in bacteria: MCPA [1]: Yes | Chromogenic reaction of degrading herbicides in bacteria: 2,4-D [2]: Yes | Chromogenic reaction of degrading herbicides in bacteria: 2,4-D ([2]; listed as D42): could degrade 2,4-D; also recorded: capable of degrading 2,4-D
